Data as given in patent US7470669B2, “Isolated polypeptide comprising a leptin fragment” (Serono Genetics Institute, S.A., priority 1999, dated 2008).

System: db^Pas/db^Pas mice
Assay: Postprandial plasma TG response after high-fat test meal in db^Pas/db^Pas mice
Assay type: in vivo, mouse
Settings: 0.25 μg/animal i.p.
Experimental: FIGS. 1A and 1B show the effect of leptin on postprandial plasma TG response in db/db and db^Pas/db^Pas mice. Overnight-fasted db/db (A), db^Pas/db^Pas (B) mice were gavage-fed a high-fat test meal and immediately injected intravenously (db/db) or intraperitoneally (db^Pas/db^Pas) with saline (open symbols) or 50 μg mouse recombinant leptin (closed symbols). At the indicated times, blood was collected from the tail (A) or orbital (B) vein, plasma was separated by centrifugation, and plasma TG concentrations were determined using an enzymatic kit. Each point represents the mean±SEM (db/db: saline, n=4, leptin, n=3; db^Pas/db^Pas: saline, n=6, leptin, n=7). […] The plasma lipid response was then measured as in A and B. The area under the response curve (AUC) was then calculated using a triangulation method on Microsoft Excel between 0 and 4 hr (mg TG·h/mL). […]
FIGS. 7A and 7B show a comparison of the effect of human and mouse leptin on LSR activity in rat hepatocytes and on postprandial increase in plasma TG in db^Pas/db^Pas mice. […] The media were removed and were analyzed for TCA-soluble degradation products. […] The data represent the difference in TG concentrations measured at t=0 and the average of the concentrations at 3 and 4 hours. […]

B1: mouse leptin: recombinant mouse leptin, laboratory-prepared or commercial (Sigma, Calbiochem) (protein, UniProt P41160 22-167, looked up)
Leptin: VPIQKVQDDTKTLIKTIVTRINDISHTQSVSAKQRVTGLDFIPGLHPILSLSKMDQTLAVYQQVLTSLPSQNVLQIANDLENLRDLLHLLAFSKSCSLPQTSGLQKPESLDGVLEASLYSTEVVALSRLQGSLQDILQQLDVSPEC
- postprandial plasma TG response: pronounced effect
